This experiment concerns the target T1, non-cleaved SNAP-25206 (UniProt P60880 1-206).
T1 construct: range 1-206; also called SNAP-25206 uncleaved substrate
Briefly: ELISA and Western blots. (In general: ELISA stands for enzyme-linked immunosorbent assay.)

T1 sequence (P60880 whole entry): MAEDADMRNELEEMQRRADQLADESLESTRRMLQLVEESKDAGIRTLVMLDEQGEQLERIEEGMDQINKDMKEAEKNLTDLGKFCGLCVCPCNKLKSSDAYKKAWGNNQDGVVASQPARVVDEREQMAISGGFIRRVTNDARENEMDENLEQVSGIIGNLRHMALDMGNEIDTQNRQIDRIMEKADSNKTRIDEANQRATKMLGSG

B1: mouse monoclonal antibody produced by hybridoma pCNEI 32-7-1, 3614-000 (antibody, V domains shown)
VH: EVQLVESGGGLVQPKGSLKLSCAASGYTFNTYAVNWVRQAPGKGLEWVARIRSKSYNYVTYYADSVKDRFTISRDDSQSMLYLQMNNLKTEDTAMYYCVKGNGNYVSFAYWGQGTLVTVSA
VL: QLVLTQSSSASFSLGASAKLTCTLSSQHNTYTIEWYQQQPLKPPKYVMELKKDGSHSTGDGIPDRFSGSSSGADRYLSISNIQPEDEAIYICGVGDTIKEQFVYVFGGGTKVTVL
notes: also called monoclonal antibody of the invention; DSM ACC3261
For B1, the binding result is “no binding”.
